Columns and labels:
Test in all cases: EMSA; Light Shift Chemiluminescent EMSA Kit (Beyotime); buffer, salt, pH and temperature not stated
Settings in all cases: protein: recombinant; tags: His (pET-30a(+)); label: biotin
PavDof15 = molecular target: T1, PavDof15 (Prunus avium (sweet cherry), UniProt A0A6P5S8Z2 1-327)
T1 sequence: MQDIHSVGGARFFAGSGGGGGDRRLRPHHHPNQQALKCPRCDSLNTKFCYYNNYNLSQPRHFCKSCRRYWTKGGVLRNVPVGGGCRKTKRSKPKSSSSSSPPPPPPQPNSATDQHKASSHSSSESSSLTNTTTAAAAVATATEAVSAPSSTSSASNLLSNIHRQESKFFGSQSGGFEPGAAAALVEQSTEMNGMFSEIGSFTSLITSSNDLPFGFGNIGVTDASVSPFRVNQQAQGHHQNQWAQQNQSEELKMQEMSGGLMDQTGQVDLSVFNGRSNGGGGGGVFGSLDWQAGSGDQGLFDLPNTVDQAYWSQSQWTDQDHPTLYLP

PavDof6 = molecular target: T2, PavDof6 (Prunus avium (sweet cherry), UniProt A0A6P5RUY3 1-310)
T2 sequence: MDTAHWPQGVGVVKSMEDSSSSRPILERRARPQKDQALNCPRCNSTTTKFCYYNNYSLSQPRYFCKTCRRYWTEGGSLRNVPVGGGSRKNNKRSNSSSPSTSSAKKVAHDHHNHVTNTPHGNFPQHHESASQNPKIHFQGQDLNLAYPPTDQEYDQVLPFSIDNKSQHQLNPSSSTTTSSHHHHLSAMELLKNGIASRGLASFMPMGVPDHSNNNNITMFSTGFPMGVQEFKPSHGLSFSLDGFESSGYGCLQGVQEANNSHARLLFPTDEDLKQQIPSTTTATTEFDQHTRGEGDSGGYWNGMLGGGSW

PavDof2 = molecular target: T3, PavDof2 (Prunus avium (sweet cherry), UniProt A0A6P5T378 1-263)
T3 sequence: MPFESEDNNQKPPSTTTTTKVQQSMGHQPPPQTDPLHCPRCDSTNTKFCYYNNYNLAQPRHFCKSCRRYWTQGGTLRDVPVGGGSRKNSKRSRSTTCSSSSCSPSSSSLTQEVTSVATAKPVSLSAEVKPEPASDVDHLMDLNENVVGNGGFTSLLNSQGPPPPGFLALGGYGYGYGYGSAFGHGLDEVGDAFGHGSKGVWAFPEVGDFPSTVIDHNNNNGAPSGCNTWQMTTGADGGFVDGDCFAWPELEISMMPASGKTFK

Measured: binding result

B1: PavPME44 promoter probe (dsDNA)
DNA 1: CTGCTTTTCTGAAAATTAAAGCAGTTTGGAGAAAAGTCC
DNA 2: GGACTTTTCTCCAAACTGCTTTAATTTTCAGAAAAGCAG
binds: all assays above

B2: PavPL18 promoter probe (dsDNA)
DNA 1: CATAAAAAGAAATAAAATGAAAAGAAAAGTGA
DNA 2: TCACTTTTCTTTTCATTTTATTTCTTTTTATG
binds: all assays above

B3: PavXTH31 promoter probe (dsDNA)
DNA 1: TGCTTTTTTTTTTTTAAAGGATT
DNA 2: AATCCTTTAAAAAAAAAAAAGCA
binds: all assays above

B4: PavNCED1 promoter probe (Dof site) (dsDNA)
DNA 1: CTCAAAAGCTAGTTATATGGAAAAAGGGA
DNA 2: TCCCTTTTTCCATATAACTAGCTTTTGAG
binds: all assays above

B5: PavQRT3 promoter probe (dsDNA)
DNA 1: TTGAAAAGTTAGGAAAAAAGTTT
DNA 2: AAACTTTTTTCCTAACTTTTCAA
binds: all assays above

B6: PavXTH26 promoter probe (dsDNA)
DNA 1: AACATTCTTTTTGTAAATCAAGTAGTTAAAAGCATTTAC
DNA 2: GTAAATGCTTTTAACTACTTGATTTACAAAAAGAATGTT
binds: all assays above
